Reference: patent US6613358B2, “Sustained-release composition including amorphous polymer” (priority 1998, dated 2003)
Where “and” joins values, the source holds several entries; their conditions need not be identical. Equal entries are not always repeated. Peptide text beside a SMILES is read from it.

Legend:
[1] = Apparent partition coefficient water/1-octanol upon SDS addition
Description: The relative solubilities in two phases is given in terms of an apparent partition coefficient. The apparent partition coefficient is defined as the ratio of the equilibrium concentration in an organic phase to that in an aqueous phase. The actual value of the apparent partition coefficient, P, is dependent on the two solvent systems employed. In all cases herein described, the organic phase is 1-octanol and the aqueous phase is water alone or with a minimal amount of HCl added.
Apparent partition coefficients were measured by dissolving a peptide in 1.25 ml of an aqueous solution. Before SDS addition, the pH was measured on a Beckman pH meter. […] An equal volume of 1-octanol was added and the mixtures agitated, and then left undisturbed for several hours. Prior to analysis, the tubes were spun for 10 minutes at 4000 g. Each layer was removed and the absorbance measured on a Beckman DU-64 UV-visible spectrophotometer using I cm quartz cells. All apparent partition coefficients were corrected for changes in pH with differing SDS concentrations.
Results are described as logarithms of the apparent partition coefficient. A log P value of 0 means that the compound is equally soluble in water and the organic phase. […] All of the log P values reported herein have been corrected for slight changes in solubility with pH.

CCRF-CEM cells = assay: Cytotoxicity, MTS cell proliferation assay; assay type: cell-based, human; settings: for IC50: Homo sapiens, 2-6 hours exposure, 72 hours incubation, read-out: IC50 (half-maximal growth inhibition)
Description: (§1) The cytotoxicity of arginine dodecyl ester was investigated in cell culture with two types of cells (see Cory et al, Cancer Commun., 3, 207-212 (1991)): CCRF-CEM cells, a human T-cell leukemia cell line that grows in suspension (obtained from the American Type Culture Collection, ATCC); and a green monkey kidney cell line (COS-7) that grows in monolayers (also obtained from ATCC). For comparison, the cells were also exposed to […] bromide (DTAB) (Sigma).
(§2) Cells were plated into 96-well plates (Corning) in a total of 200 μL Dulbecco's modified minimal essential medium for COS-7 cells, RPMI 1640 for CEM cells, supplemented with penicillin G (50 U/ml), streptomycin sulfate (50 μg/ml), and 10% fetal calf serum, at 10,000 cells/well for COS-7 and 50,000 cells/well for CEM cells. The plates were incubated at 37° C. for 24 hours after plating. The cells were then exposed to various concentrations of the detergents. Each detergent concentration was used in 8 replicate wells. After 2-6 hours, media/detergent solutions were aspirated, and the wells were washed twice with PBS. For CEM suspension cells, centrifugation of the suspension at 1000× g for 5 min between each wash was required. After washing, 200 μL of fresh medium were added, and the cells were incubated for 72 hours. After 72 hours, cell proliferation was determined using the Promega CellTiter 96 AQueous Non-Radioactive Cell Proliferation Assay.

COS-7 cells [2] = assay: Cytotoxicity, MTS cell proliferation assay; assay type: cell-based, green monkey
Description: as §1
as §2, with “After washing, 200 μL of fresh medium were added, and the cells were incubated for 72 hours.” left out, “Assay. […]” for “Assay.”

COS-7 cells [3] = assay: Transfection of plasmid pRSV400luc, luciferase activity; assay type: cell-based, green monkey; settings: without liposomes or helper lipids; serum-containing medium
Text: The plasmid used was pRSV400luc. It was obtained from Dr. David Gordon Div. Endocrinology, University of Colorado School of Medicine, Denver, Colo. It was propagated in Escherichia coil strain DH5a (ATCC), isolated by a standard alkaline-SDS Iysis procedure, and purified twice by isopycnic centrifugation on CsCl gradients (Sambrook et al, Molecular Cloning: A Laboratory Manual (Cold Spring Harbor Laboratory) (1989). COS-7 cells at approximately 50,000 cells per 60 mm diameter plate (Falcon) were used for transfection. Control experiments were done with Lipofectamine (GIBCO/Life Technologies, Gaithersburg, Md.).
In 200 total μl of serum-free medium, plasmid (20 μg) and Lipofectamine or arginine dodecyl ester were mixed and allowed to interact for 45 minutes. […] Plates with cells were washed with serum-free medium. Then, 1 mL serum-free medium was added to plates already containing 2 mL serum-free medium and the plates were incubated at 37° C. for 4 hours. […]
After allowing cells to grow and express gene product for 36-50 hours, the cells were harvested. […] Intensity of luminescence should be proportional to the amount of expressed luciferase and, therefore, the efficiency of transfection. “Background” is the reading from just the substrate mixture on the luminometer before addition of cell lysate. […] Any reading over 100 units is considered significant.

[4] = Surface tension, critical micelle concentration; assay type: physicochemical; settings: in 0.1 N HCl
Description: Surface tension was measured using a Fisher surface tensiometer. Briefly, a platinum iridium ring with a diameter of 6 cm was lowered into the appropriate dilution of detergent in 0.1 N HCl. Surface tension was read at the point where the force on the ring upwards caused the ring to break contact with the liquid surface.

[5] = Solubility of arginine octyl ester powder; assay type: physicochemical
[6] = Partitioning of anionic compounds with arginine esters; assay type: physicochemical; settings: for log p: pH 5.5 buffer, 1 mg/mL
Description: Stock solutions of the arginine esters were made by first dissolving the powder in 0.1 N HCl to give a 10 mM solution and then raising the pH to a value between 5 and 6. The pH should not be raised above 8.
Anionic compounds were dissolved in pH 5.5 buffer (10 mM bis-tris propane, 10 mM CaCl2, 10 mM KCl). Appropriate amounts of the stock solution of arginine ester (see above), the anionic compound and buffer were mixed so that the final concentration of the anionic material was 1 mg/mL. An equal volume of organic solvent was added, and the samples were vortexed for 15 seconds on high speed. Layers were separated by centrifugation at 4000 rpm for 5 minutes. Concentrations of the anionic material in the aqueous and organic layers were determined by UV spectroscopy on a Beckman DU-64 series spectrophotometer.

[7] = assay type: physicochemical
Text: Larger proteins can also form complexes with SDS. […] At higher SDS concentrations, hGH redissolves, presumably via micellar solubilization. […] Other proteins can also form complexes with SDS. Bovine pancreatic trypsin inhibitor (BPTI) is a small basic protein (MW 5900) with a well defined and stable structure (Wlodawer et. al. (1984) J. Mol. Biol. 180:301-329, and (1987) J. Mol. Biol. 193:145-156). […] In TMP, the globular structure is compromised, as determined by CD spectroscopy. Apparently, TMP is a strong enough solvent to displace water from the hydration sphere and destabilize the structure of BPTI. This mechanism of protein denaturation has been described in detail by Arakawa and […] (1982) Biochemistry 21:6536-6544. and (1982) Biochemistry 21:6545-6552.

[8] = Partitioning and dissolution of SDS-insulin complexes in non-aqueous solvents; assay type: physicochemical; settings: for Apparent Sol. / Log P: SDS-insulin complex
Text: Dissolution of insulin-SDS complexes in other solvents was investigated as well (Table 1). Precipitates of SDS-insulin complexes were isolated and added to various organic solvents. […] Besides alcohols. SDS-insulin complexes are soluble in N-methylpyrrolidone (NMP), trimethylphosphate (TRIP), polyethylene glycol, ethanol, and t-butanol.

[9] = Thermal denaturation (Tm) following molar ellipticity at 222 nm; assay type: physicochemical
Text: [define Tm. […] (FIG. 6), which is more than 30 degrees above that observed in water.

[10] = CD spectrometry of protein structure in organic solvent; assay type: physicochemical; settings: extracted from 1-octanol into 0.10 M HCl; 53 ug/ml, 5° C.
Description: CD spectra were recorded on an Aviv 62DS spectrophotometer equipped with a thermoelectric temperature unit. All temperatures were measured ±0.2° C. Samples were placed in strain-free quartz cells (pathlength of 1 mm) and spectra obtained taking data every 0.25 nm using a three second averaging time, and having a spectral bandwidth of 1 nm.
The pathlength was 1 mm, the sample concentration 53 ug/ml, and the sample temperature 5° C.

[11] = Melting point of SDS:insulin ion pairs in 1-octanol (CD signal and absorbance at 222 nm); assay type: physicochemical
Description: Equal volumes of octanol were added to each SDS:insulin solution to partition the insulin into the octanol phase. […] Both circular dichroism (CD) signal and light scattering (as measured by changes in absorbance) were measured at 222 nm and the melting point determined by an inflection point in the measured scan.

[12] = organic solvent Propylene Glycol
[13] = organic solvent Trifluoroethanol
[14] = organic solvent Trimethyl phosphate

Compound: NC(=O)CC[C@@H]1NC(=O)[C@H](Cc2ccccc2)NC(=O)[C@H](Cc2ccc(O)cc2)NC(=O)[C@@H](N)CSSC[C@@H](C(=O)N2CCC[C@H]2C(=O)N[C@@H](CCCN=C(N)N)C(=O)NCC(N)=O)NC(=O)[C@H](CC(N)=O)NC1=O [AVP, 8-Arg-vasopressin]
- log p ([1]; pH 7): > 1
- increase of apparent partition coefficient ([1]; upon stoichiometric SDS addition, water/1-octanol): nearly four orders of magnitude

Compound: CCCCCCCCCCCCCC[N+](C)(C)C [DTAB, tetradecyltrimethylammonium bromide, reference compound]
- IC50 (CCRF-CEM cells): 20 µM
- IC50 (COS-7 cells [2]; Chlorocebus sabaeus, 2-6 hours exposure, 72 hours incubation, read-out: IC50 (half-maximal growth inhibition)): 80 µM

Compound: NCC(=O)N[C@@H](Cc1ccccc1)C(=O)O [Gly-Phe] (H-Gly-Phe-OH)
- enhancement of partition coefficient with SDS ([1]; neutral pH (zwitterionic form)): little enhancement of the partition coefficient is observed
- partitioning with SDS ([1]; pH 3): mirrors the marked increase seen for Gly-PheNH2

Compound: CCCCCCCCCCCCOC(=O)[C@@H](N)CCCNC(=N)N [arginine dodecyl ester]
- transfection of the plasmid (COS-7 cells [3]): promoted transfection of the plasmid in a concentration and time dependent manner
- critical micelle concentration (cmc) [4]: approximately 0.3 mM and ~0.10 mg/ml
- toxicity relative to DTAB (CCRF-CEM cells): seven-fold less toxicity
- IC50 (CCRF-CEM cells): 150 µM
- toxicity relative to DTAB (COS-7 cells [2]): approximately two-fold less toxicity

Compound: CCCCCCCCOC(=O)[C@@H](N)CCCNC(=N)N [arginine octyl ester]
- dissolution in HCl [5]: would only dissolve in 0.1 N or stronger HCl
- solubility in water [5]: insoluble
- solubility in organics ([5]; alcohols, hydrocarbons, aromatics, DMF and pyridine): insoluble
- critical micelle concentration (cmc) [4]: about 6 mM and ~2.2 mg/ml

Compound: Cc1ccc(S(=O)(=O)[O-])cc1.[Na+] [p-toluenesulfonic acid, sodium salt]
- log p ([6]; Ester C8 (arginine octyl ester), solvent isooctane): −2.2
- log p ([6]; Ester C8 (arginine octyl ester), solvent octanol): −0.353
- log p ([6]; Ester C12 (arginine dodecyl ester), solvent octanol): −0.336
- log p ([6]; Ester none, solvent isooctane): −2.7
- log p ([6]; Ester none, solvent octanol): −1.62

Compound: Gly-Phe-NH2
- partitioning of SDS complex into 1-octanol ([1]; pH 7, 1:1 complex with SDS): readily partitions into 1-octanol

Compound: bovine serum albumin: protein tested for partitioning with arginine dodecyl ester
- partitioning into octanol layer ([6]; arginine dodecyl ester added, solutions turned cloudy): none would partition into octanol layer

Compound: hGH: human growth hormone
- solubility of SDS precipitate in 1-octanol [7]: not found to be soluble
- aqueous behaviour on addition of SDS ([7]; pH 2): precipitates from aqueous solution
- aqueous solubility on addition of SDS ([7]; pH 7.8): not affected

Compound: insulin
- Apparent Sol. ([8]; organic solvent 1-Chlorooctane): insoluble
- Log P ([8]; organic solvent 1-Chlorooctane): not detectable
- Apparent Sol. ([8]; organic solvent 1-octanol): ≧1.0 mg/ml
- Log P ([8]; organic solvent 1-octanol): ≧1.2
- Log P ([8]; organic solvent Acetone): miscible
- Apparent Sol. ([8]; organic solvent CCl4): insoluble
- Log P ([8]; organic solvent CCl4): not detectable
- Apparent Sol. ([8]; organic solvent CH2Cl2): insoluble
- Log P ([8]; organic solvent CH2Cl2): not detectable
- Apparent Sol. ([8]; organic solvent DMF): ≧1.0 mg/ml
- Log P ([8]; organic solvent Dimethoxyethane): not detectable
- Apparent Sol. ([8]; organic solvent Ethanol): ≧1.0 mg/ml
- Log P ([8]; organic solvent Ethanol): miscible
- Apparent Sol. ([8]; organic solvent Ether): insoluble
- Log P ([8]; organic solvent Ether): not detectable
- Apparent Sol. ([8]; organic solvent Ethyl acetate): insoluble
- Log P ([8]; organic solvent Ethyl acetate): miscible
- Apparent Sol. ([8]; organic solvent Hexane): insoluble
- Log P ([8]; organic solvent Hexane): not detectable
- Apparent Sol. ([8]; organic solvent Methanol): ≧1.0 mg/ml
- Log P ([8]; organic solvent Methanol): miscible
- Apparent Sol. ([8]; organic solvent Mineral Oil): insoluble
- Log P ([8]; organic solvent Mineral Oil): not detectable
- Apparent Sol. ([8]; organic solvent NMP): ≧1.0 mg/ml
- Log P ([8]; organic solvent NMP): miscible
- Apparent Sol. ([8]; organic solvent PEG 400): ≧0.2 mg/ml
- Log P ([8]; organic solvent PEG 400): miscible
- Apparent Sol. [8, 12]: ≧0.5 mg/ml
- Log P [8, 12]: miscible
- Log P ([8]; organic solvent THF): miscible
- Apparent Sol. ([8]; organic solvent TMP): ≧0.2 mg/ml
- Log P ([8]; organic solvent TMP): miscible
- Apparent Sol. [8, 13]: ≧0.5 mg/ml
- Log P [8, 13]: miscible
- Apparent Sol. [8, 14]: ≧0.15 mg/ml
- Log P [8, 14]: miscible
- Apparent Sol. ([8]; organic solvent i-Propanol): ≧1.0 mg/ml
- Log P ([8]; organic solvent i-Propanol): miscible
- Tm in 1-octanol above that observed in water [9]: more than 30 degrees
- Tm of thermal denaturation ([9]; in 1-octanol (SDS complex), molar ellipticity at 222 nm): 98 °C
- Tm of thermal denaturation ([9]; in aqueous solution): about 65 °C
- structure by CD after extraction back into aqueous phase [10]: overall structure similar to that of native insulin

Compound: insulin-SDS complex: hydrophobic ion pair complex of insulin with sodium dodecyl sulfate
- melting point in octanol (apparent maximum) ([11]; 6:1 SDS:insulin molar ratio, 200 ug/ml): about 116 °C
- melting point in octanol, absorbance scan at 222 nm ([11]; 9:1 SDS:insulin molar ratio): 106 °C
- melting point in octanol, CD scan at 222 nm ([11]; 9:1 SDS:insulin molar ratio, maxima of first derivative): 106 °C
- solubility in organic solvents [8]: soluble
- structure after prolonged heating ([9]; in 1-octanol, 70° C. for more than 1 hour): appears to maintain its native structure
